Substitutions are numbered along the chain they refer to.
B1: CDRH3 library mutant VYYCAKVTYLPS (Fab, V domains shown)
VH: EVQLVESGGGLVQPGRSLRLSCAASGFTFDDYAMHWVRQAPGKGLEWVSAITWNSGHIDYADSVEGRFTISRDNAKNSLYLQMNSLRAEDTAVYYCAKVTYLPSASSLDYWGQGTLVTVSS
VL: not shown
B2: CDRH3 library mutant VYYCAKVKYLPA (Fab, V domains shown)
VH: B1 VH with T100K, S104A
VL: not shown
B3: CDRH3 library mutant LYYCAKTTYLPS (Fab, V domains shown)
VH: B1 VH with V93L, V99T
VL: not shown
B4: CDRH3 library mutant LYYCAKTRYLPS (Fab, V domains shown)
VH: B1 VH with V93L, V99T, T100R
VL: not shown
B5: CDRH3 library mutant VYYCAKVTYTPS (Fab, V domains shown)
VH: B1 VH with L102T
VL: not shown
B6: CDRH3 library mutant VYYCAKVKYLPP (Fab, V domains shown)
VH: B1 VH with T100K, S104P
VL: not shown
B7: CDRH3 library mutant VYYCAKAKYLPT (Fab, V domains shown)
VH: B1 VH with V99A, T100K, S104T
VL: not shown
B8: CDRH3 library mutant VYYCAKTSYLPS (Fab, V domains shown)
VH: B1 VH with V99T, T100S
VL: not shown
B9: CDRH3 library mutant LYYCAKVKYTPT (Fab, V domains shown)
VH: B1 VH with V93L, T100K, L102T, S104T
VL: not shown
B10: CDRH3 library mutant LYYCAKTTYLPT (Fab, V domains shown)
VH: B1 VH with V93L, V99T, S104T
VL: not shown
B11: CDRH3 library mutant LYYCAKTKYLPS (Fab, V domains shown)
VH: B1 VH with V93L, V99T, T100K
VL: not shown
B12: CDRH3 library mutant VYYCAKTNYLPT (Fab, V domains shown)
VH: B1 VH with V99T, T100N, S104T
VL: not shown
B13: CDRH3 library mutant VYYCAKTRYLPT (Fab, V domains shown)
VH: B1 VH with V99T, T100R, S104T
VL: not shown
B14: CDRH3 library mutant LYYCAKVKYLPT (Fab, V domains shown)
VH: B1 VH with V93L, T100K, S104T
VL: not shown
B15: CDRH3 library mutant VYYCAKVAYLPS (Fab, V domains shown)
VH: B1 VH with T100A
VL: not shown
B16: CDRH3 library mutant VYYCAKTGYLPT (Fab, V domains shown)
VH: B1 VH with V99T, T100G, S104T
VL: not shown
B17: CDRH3 library mutant VYYCAKTKYLPS (Fab, V domains shown)
VH: B1 VH with V99T, T100K
VL: not shown
B18: CDRH3 library mutant VYYCAKSKYLPT (Fab, V domains shown)
VH: B1 VH with V99S, T100K, S104T
VL: not shown
B19: CDRH3 library mutant LYYCAKVKYLPS (Fab, V domains shown)
VH: B1 VH with V93L, T100K
VL: not shown
B20: CDRH3 library mutant VYYCAKTTYLPT (Fab, V domains shown)
VH: B1 VH with V99T, S104T
VL: not shown
B21: CDRH3 library mutant VYYCAKVKYLPS (Fab, V domains shown)
VH: B1 VH with T100K
VL: not shown
B22: CDRH3 library mutant VYYCAKAHHLPT (Fab, V domains shown)
VH: B1 VH with V99A, T100H, Y101H, S104T
VL: not shown
B23: CDRH3 library mutant VYYCAKTHYLPT (Fab, V domains shown)
VH: B1 VH with V99T, T100H, S104T
VL: not shown
B24: CDRH3 library mutant LYYCAKTNYLPT (Fab, V domains shown)
VH: B1 VH with V93L, V99T, T100N, S104T
VL: not shown
B25: CDRH3 library mutant VYYCAKTRYTPT (Fab, V domains shown)
VH: B1 VH with V99T, T100R, L102T, S104T
VL: not shown
B26: CDRH3 library mutant VYYCAKTTYLPS (Fab, V domains shown)
VH: B1 VH with V99T
VL: not shown
B27: CDRH3 library mutant LYYCAKTKYLPT (Fab, V domains shown)
VH: B1 VH with V93L, V99T, T100K, S104T
VL: not shown
B28: CDRH3 library mutant VYYCAKTKYLPT (Fab, V domains shown)
VH: B1 VH with V99T, T100K, S104T
VL: not shown
B29: CDRH3 library mutant LYYCAKTRYLPT (Fab, V domains shown)
VH: B1 VH with V93L, V99T, T100R, S104T
VL: not shown
B30: CDRH2 library mutant AAIAWNGGHH (Fab, V domains shown)
VH: B1 VH with S49A, T52A, S55G, I58H, T100S, P103S, S104T
VL: not shown
B31: CDRH2 library mutant AAISWNGGHQ (Fab, V domains shown)
VH: B1 VH with S49A, T52S, S55G, I58Q, T100S, P103S, S104T
VL: not shown
B32: CDRH2 library mutant SAINWNGGHR (Fab, V domains shown)
VH: B1 VH with T52N, S55G, I58R, T100S, P103S, S104T
VL: not shown
B33: CDRH2 library mutant AAIAWNGGHR (Fab, V domains shown)
VH: B1 VH with S49A, T52A, S55G, I58R, T100S, P103S, S104T
VL: not shown
B34: CDRH2 library mutant GAISWNGGHR (Fab, V domains shown)
VH: B1 VH with S49G, T52S, S55G, I58R, T100S, P103S, S104T
VL: not shown
B35: CDRH2 library mutant AAINWNSGHR (Fab, V domains shown)
VH: B1 VH with S49A, T52N, I58R, T100S, P103S, S104T
VL: not shown
B36: CDRH2 library mutant GAITWNGGHR (Fab, V domains shown)
VH: B1 VH with S49G, S55G, I58R, T100S, P103S, S104T
VL: not shown
B37: CDRH2 library mutant GAINWNGGHT (Fab, V domains shown)
VH: B1 VH with S49G, T52N, S55G, I58T, T100S, P103S, S104T
VL: not shown
B38: CDRH2 library mutant AAIAWNGGHQ (Fab, V domains shown)
VH: B1 VH with S49A, T52A, S55G, I58Q, T100S, P103S, S104T
VL: not shown
B39: CDRH2 library mutant AAIAWNGGHT (Fab, V domains shown)
VH: B1 VH with S49A, T52A, S55G, I58T, T100S, P103S, S104T
VL: not shown
B40: CDRH2 library mutant AAINWNGGHR (Fab, V domains shown)
VH: B1 VH with S49A, T52N, S55G, I58R, T100S, P103S, S104T
VL: not shown
B41: CDRH2 library mutant SAISWNGGHQ (Fab, V domains shown)
VH: B1 VH with T52S, S55G, I58Q, T100S, P103S, S104T
VL: not shown
B42: CDRH2 library mutant GAISWNGGHT (Fab, V domains shown)
VH: B1 VH with S49G, T52S, S55G, I58T, T100S, P103S, S104T
VL: not shown
B43: CDRH2 library mutant AAITWNGGHR (Fab, V domains shown)
VH: B1 VH with S49A, S55G, I58R, T100S, P103S, S104T
VL: not shown
B44: CDRH2 library mutant AAITWNGGHT (Fab, V domains shown)
VH: B1 VH with S49A, S55G, I58T, T100S, P103S, S104T
VL: not shown
B45: CDRH2 library mutant AAISWNGGHA (Fab, V domains shown)
VH: B1 VH with S49A, T52S, S55G, I58A, T100S, P103S, S104T
VL: not shown
B46: CDRH2 library mutant GAISWNGGHH (Fab, V domains shown)
VH: B1 VH with S49G, T52S, S55G, I58H, T100S, P103S, S104T
VL: not shown
B47: CDRH2 library mutant SAISWNGGHR (Fab, V domains shown)
VH: B1 VH with T52S, S55G, I58R, T100S, P103S, S104T
VL: not shown
B48: CDRH2 library mutant AAINWNGGHH (Fab, V domains shown)
VH: B1 VH with S49A, T52N, S55G, I58H, T100S, P103S, S104T
VL: not shown
B49: CDRH2 library mutant SAISWNGGHH (Fab, V domains shown)
VH: B1 VH with T52S, S55G, I58H, T100S, P103S, S104T
VL: not shown
B50: CDRH2 library mutant AAISWNGGHS (Fab, V domains shown)
VH: B1 VH with S49A, T52S, S55G, I58S, T100S, P103S, S104T
VL: not shown
B51: CDRH2 library mutant GAINWNGGHR (Fab, V domains shown)
VH: B1 VH with S49G, T52N, S55G, I58R, T100S, P103S, S104T
VL: not shown
B52: CDRH2 library mutant AAIAWNGGHS (Fab, V domains shown)
VH: B1 VH with S49A, T52A, S55G, I58S, T100S, P103S, S104T
VL: not shown
B53: CDRH2 library mutant AAISWNGGHT (Fab, V domains shown)
VH: B1 VH with S49A, T52S, S55G, I58T, T100S, P103S, S104T
VL: not shown
B54: CDRH2 library mutant AAISWNGGHR (Fab, V domains shown)
VH: B1 VH with S49A, T52S, S55G, I58R, T100S, P103S, S104T
VL: not shown
B55: CDRH2 library mutant AAISWNGGHH (Fab, V domains shown)
VH: B1 VH with S49A, T52S, S55G, I58H, T100S, P103S, S104T
VL: not shown
B56: CDRH2 library mutant AAINWNSGHQ (Fab, V domains shown)
VH: B1 VH with S49A, T52N, I58Q, T100S, P103S, S104T
VL: not shown

Molecular target: T1, biotinylated TNF alpha (human (definition in paragraph 32)); the …, UniProt P01375 77-233, biotinylated (site not stated))
T1 construct: Used for FACS sorting of yeast libraries and immobilised on streptavidin sensors for BLI; also called TNFα; Tumor Necrosis Factor Alpha
Test: yeast display MACS and FACS sorting on biotinylated TNF alpha, NGS enrichment, CDRH3 library
Excerpt: The second selection phase consists of selecting the mutant by the dissociation speed thereof.
The selection of DMS libraries was done in a single step by FACS on an ARIA III device (Becton Dickinson, Franklin Lakes, United States). […] After washing the cells with PBS 0.1% BSA, they were marked by using an APC coupled antibody directed against the OK domain (Thermo Fisher Scientific, Waltham, United States; dilution 1:100) and a PE coupled streptavidin (Thermo Fisher Scientific, Waltham, United States; dilution 1:100). The selection of libraries was done by means of rectangular sorting window containing 5% of the clones of interest according to the optimal parameters described by Kowalski et al. PLoS One 10, 1-23 (2015)). The selection of de-immunization libraries was done in several steps. […] The libraries underwent different steps of sorting by FACS.

T1 sequence (P01375 77-233 limits assumed): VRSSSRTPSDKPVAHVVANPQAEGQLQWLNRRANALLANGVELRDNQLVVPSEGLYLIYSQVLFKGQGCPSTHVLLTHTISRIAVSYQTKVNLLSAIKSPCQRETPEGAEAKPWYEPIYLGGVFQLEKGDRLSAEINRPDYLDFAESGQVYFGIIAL

| Enrichment | Binder |
| --- | --- |
| 241000 | B1 |
| 81400 | B2 |
| 151000 | B3 |
| 63500 | B4 |
| 99200 | B5 |
| 61600 | B6 |
| 163000 | B7 |
| 371000 | B8 |
| 110000 | B9 |
| 54100 | B10 |
| 65400 | B11 |
| 51900 | B12 |
| 707000 | B13 |
| 251000 | B14 |
| 62000 | B15 |
| 100000 | B16 |
| 87100 | B17 |
| 105000 | B18 |
| 188000 | B19 |
| 1.29e+06 | B20 |
| 71900 | B21 |
| 122000 | B22 |
| 61200 | B23 |
| 448000 | B24 |
| 80800 | B25 |
| 149000 | B26 |
| 97400 | B27 |
| 1.06e+06 | B28 |
| 59400 | B29 |

Molecular target: T1, biotinylated TNF alpha
Test: yeast display FACS sorting on biotinylated TNF alpha, NGS enrichment, CDRH2 library

| Enrichment | Binder |
| --- | --- |
| 119 | B30 |
| 192 | B31 |
| 79 | B32 |
| 197 | B33 |
| 279 | B34 |
| 122 | B35 |
| 64 | B36 |
| 62 | B37 |
| 109 | B38 |
| 144 | B39 |
| 417 | B40 |
| 104 | B41 |
| 133 | B42 |
| 213 | B43 |
| 91 | B44 |
| 75 | B45 |
| 66 | B46 |
| 207 | B47 |
| 132 | B48 |
| 87 | B49 |
| 82 | B50 |
| 222 | B51 |
| 93 | B52 |
| 193 | B53 |
| 382 | B54 |
| 164 | B55 |
| 105 | B56 |

From patent US20230142800A1 (COMMISSARIAT A L ENERGIE ATOMIQUE ET AUX ENERGIES …, published 2023)
